From article PMC3100304, “The Interplay between NF-kappaB and E2F1 Coordinately Regulates Inflammation and Metabolism in Human Cardiac Cells” (PLoS ONE, 2011)

Molecular target: T1, p65 subunit of NF-κB (human (endogenous in AC16), UniProt Q04206 1-551)
T1 construct: p65 subunit of NF-κB (RelA), endogenous in human cardiac AC16 cells; precipitated with an anti-p65 antibody; also called RelA/p65; source: endogenous, human cardiac AC16 cells, nuclear extract
Assay: co-IP; AC16 nuclear extracts (25 µg) precipitated with 4 µg anti-p65 and protein A-agarose at 4°C, blotted with anti-E2F1; cells with or without TNF-α (100 ng/ml, 24 h), parthenolide (10 µmol/L), siRNA to p65, or LacZ- or E2F1-carrying plasmids
Settings: partners not purified

T1 sequence (Q04206 whole entry): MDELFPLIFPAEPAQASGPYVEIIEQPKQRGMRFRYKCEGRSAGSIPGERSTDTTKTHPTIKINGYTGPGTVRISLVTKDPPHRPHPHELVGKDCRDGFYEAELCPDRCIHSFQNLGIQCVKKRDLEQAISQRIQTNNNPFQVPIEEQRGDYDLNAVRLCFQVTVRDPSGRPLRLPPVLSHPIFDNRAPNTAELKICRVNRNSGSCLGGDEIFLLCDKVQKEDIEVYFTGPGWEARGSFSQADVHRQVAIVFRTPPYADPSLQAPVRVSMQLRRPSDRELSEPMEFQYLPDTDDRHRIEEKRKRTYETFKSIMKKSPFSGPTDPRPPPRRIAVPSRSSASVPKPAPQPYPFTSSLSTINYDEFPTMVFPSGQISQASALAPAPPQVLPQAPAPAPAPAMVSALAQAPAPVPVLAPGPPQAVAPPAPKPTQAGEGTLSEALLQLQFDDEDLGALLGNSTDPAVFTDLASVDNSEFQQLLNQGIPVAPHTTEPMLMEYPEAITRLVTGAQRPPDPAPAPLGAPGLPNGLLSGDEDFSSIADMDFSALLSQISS

B1: E2F1 overexpressed from the pSG5L/E2F1 construct (natural protein)
chain: not shown
notes: human E2F1 expressed from the pSG5L/E2F1 construct (human gene, Addgene plasmid 10736); The transfected cells also hold endogenous E2F1; source: AC16 cells, transfected (Lipofectamine 2000), in nuclear extract
fold of p65-E2F1 association vs. LacZ: 2 fold
fold of p65-E2F1 association vs. LacZ (with TNF-α): 4 fold
